Reference: the supplement of paper PMC9233669
Fewer inactive variants are shown than the library holds.

Legend:
biotinyl-Ile-oxazolone = test: self-aminoacylation, catalytic enhancement (BIO) (fold over background); higher = more active; k-Seq, kA / k0A0; sequences stand for … in GGGAAUGGAUCCACAUCUACGAAUUC…UUCACUGCAGACUUGACGAAGCUG
Outline: (§1)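 The uncatalyzed rate is the low-activity peak of a bimodal Gaussian fit, and catalytic enhancement is median kA divided by it. The kA values came from pseudo-first-order fits, with 1000 bootstraps, of per-sequence fraction reacted measured by streptavidin capture, triplicate qPCR and Illumina sequencing. Mutagenized RNA pools with a 21-nt variable region (0.43 μM) were reacted with each biotinyl-aminoacyl-oxazolone at 2–1250 μM in 50 μL HEPES/NaCl/KCl/MgCl2/CaCl2 buffer with 5% acetonitrile, pH 6.9–7.0, for 90 minutes at room temperature.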

biotinyl-Trp-oxazolone = test: self-aminoacylation, catalytic enhancement (BWO) (fold over background); higher = more active; k-Seq, kA / k0A0; sequences stand for … in GGGAAUGGAUCCACAUCUACGAAUUC…UUCACUGCAGACUUGACGAAGCUG
Outline: as §1

biotinyl-Leu-oxazolone = test: self-aminoacylation, catalytic enhancement (BLO) (fold over background); higher = more active; k-Seq, kA / k0A0; sequences stand for … in GGGAAUGGAUCCACAUCUACGAAUUC…UUCACUGCAGACUUGACGAAGCUG
Outline: as §1

biotinyl-Val-oxazolone = test: self-aminoacylation, catalytic enhancement (BVO) (fold over background); higher = more active; k-Seq, kA / k0A0; sequences stand for … in GGGAAUGGAUCCACAUCUACGAAUUC…UUCACUGCAGACUUGACGAAGCUG
Outline: as §1

biotinyl-Phe-oxazolone = test: self-aminoacylation, catalytic enhancement (BFO) (fold over background); higher = more active; k-Seq, kA / k0A0; sequences stand for … in GGGAAUGGAUCCACAUCUACGAAUUC…UUCACUGCAGACUUGACGAAGCUG
Outline: as §1

biotinyl-Met-oxazolone = test: self-aminoacylation, catalytic enhancement (BMO) (fold over background); higher = more active; k-Seq, kA / k0A0; sequences stand for … in GGGAAUGGAUCCACAUCUACGAAUUC…UUCACUGCAGACUUGACGAAGCUG
Outline: as §1

Sequence	self-aminoacylation (biotinyl-Ile-oxazolone)	self-aminoacylation (biotinyl-Trp-oxazolone)	self-aminoacylation (biotinyl-Leu-oxazolone)	self-aminoacylation (biotinyl-Val-oxazolone)	self-aminoacylation (biotinyl-Phe-oxazolone)	self-aminoacylation (biotinyl-Met-oxazolone)
AAUCCCCUGGUCAUCGAGUGA [Fam2.1 aminoacylation ribozyme variant]	3.35	5.97	6.5	3.96	34.4	6.29
AUUACCCGCGUCAUCGAGUGA [Fam2.1 aminoacylation ribozyme variant]	2.37	5.55	4.6	2.8	24.9	4.55
AUUCACCUCGAUCAUCGGGUG [Fam2.2 aminoacylation ribozyme variant]	3.11	3.99	5.94	3.18	39.4	4.77
CUGCUUUAAACAAUCGGUCUG [Fam1A.1 aminoacylation ribozyme variant]	0.889	1.87	0.754	0.79	2	0.879
CUCCUUAAAACAAUCGGUCUG [Fam1A.1 aminoacylation ribozyme variant]	1.06	1.32	0.899	0.862	1.05	1.12
AAGUUUGCUAAUACUUGCAAG [Fam3.1 aminoacylation ribozyme variant]	0.743	0.685	0.586	0.625	0.999	0.582
CUACUUCAAACACUCAGUCUG [Fam1A.1 aminoacylation ribozyme variant]	0.798	0.601	0.685	0.732	1.02	0.727
AAGUUUGCUAACAGUCGCCAG [Fam3.1 aminoacylation ribozyme variant]	1.61	2.07	1.17	1.33	1.8	1.45
CUACUUAAAACACUCGGUCUG [Fam1A.1 aminoacylation ribozyme variant]	0.992	0.762	0.882	0.792	0.731	0.758
AUUUACCUCGGUCAUCGGGUG [Fam2.2 aminoacylation ribozyme variant]	4.06	7.01	8.51	4.9	54.6	6.78
CUAGUUCAAACACUCGGUCUG [Fam1A.1 aminoacylation ribozyme variant]	1.35	1.04	1.48	1.31	5.58	1.46
AAGUUUGGUAAUAGUCGCCAG [Fam3.1 aminoacylation ribozyme variant]	1.32	2.18	1.27	1.32	4.77	1.1
AGUCACCUAGGUCAUUGGGUG [Fam2.2 aminoacylation ribozyme variant]	3.03	3.42	4.04	3.26	25.8	4.22
GGACACUUCAAGCAAUCGGUC [Fam1B.1 aminoacylation ribozyme variant]	2.38	22.5	2.4	2.29	26.7	2.13
CGACGUCAAACAAUCGGUCUG [Fam1A.1 aminoacylation ribozyme variant]	1.25	1.82	1.24	1.66	4.02	1.84
CUACUUCAAACAAUCGGCCUC [Fam1A.1 aminoacylation ribozyme variant]	1.8	7.78	1.89	1.88	11.8	1.63
UUACUUCAAACAACCGGUCUG [Fam1A.1 aminoacylation ribozyme variant]	1.36	1.51	1.22	1.15	1.38	1.03
AAGUCUGCUCAUAGUCGCAAG [Fam3.1 aminoacylation ribozyme variant]	1.16	4.23	1.08	1.18	8.38	1.29
AUUAACCUGGUAAUCGAGUGA [Fam2.1 aminoacylation ribozyme variant]	3.86	11.3	9.73	4.05	52.9	8.82
AUUCCCCGAGGUCAUCGGGUG [Fam2.2 aminoacylation ribozyme variant]	12.5	20.2	29.9	14	188	22.7
AUUACCGUGGUCAUCGAGUGU [Fam2.1 aminoacylation ribozyme variant]	1.89	4.27	3.51	2.46	12.9	3.17

Sequence	self-aminoacylation (biotinyl-Ile-oxazolone)	self-aminoacylation (biotinyl-Trp-oxazolone)	self-aminoacylation (biotinyl-Leu-oxazolone)	self-aminoacylation (biotinyl-Val-oxazolone)	self-aminoacylation (biotinyl-Phe-oxazolone)	self-aminoacylation (biotinyl-Met-oxazolone)
CUUCUUCAGACAAUCGGUCUG [Fam1A.1 aminoacylation ribozyme variant]	0.76	0.559	0.606	0.751	0.958	0.651
AUGUUUACUAAUAGUCGCAAG [Fam3.1 aminoacylation ribozyme variant]	1.67	2.07	1.52	1.7	1.92	1.61
AUUACCCUGGCCAUCGCGUGA [Fam2.1 aminoacylation ribozyme variant]	4.28	8.64	11	4.81	56.3	6.31
AAGUGUGCCAAUAGUCGCAAG [Fam3.1 aminoacylation ribozyme variant]	2.38	1.66	1.78	1.61	2.66	1.97
AAGUAUGCUCAUAGUCGCAAG [Fam3.1 aminoacylation ribozyme variant]	1.83	2.78	1.3	1.3	4.07	1.5
AUACUUCAAACAAUUGGUCUG [Fam1A.1 aminoacylation ribozyme variant]	1.19	1.16	0.956	1.04	1.16	0.903
CUACCUAAAACAAUCGGUCUG [Fam1A.1 aminoacylation ribozyme variant]	0.883	0.697	0.624	0.991	0.787	0.761
CCACACUUCAAUCAAUCGAUC [Fam1B.1 aminoacylation ribozyme variant]	0.523	0.592	0.512	0.609	1.25	0.463
CCACCCUUCAAGCAAUCGUUC [Fam1B.1 aminoacylation ribozyme variant]	0.888	0.742	0.611	0.89	0.85	0.584
AAUCACCUAUGUCAUCGGGUG [Fam2.2 aminoacylation ribozyme variant]	3.28	6.14	4.9	3.29	23.4	4.23
CUUCUUCAAACAAUCGGUAUG [Fam1A.1 aminoacylation ribozyme variant]	0.784	4.71	0.779	0.66	9.62	0.647
AUUACCCUGGUCUUCGAGUCA [Fam2.1 aminoacylation ribozyme variant]	0.953	0.688	0.903	0.873	0.638	0.844
AAGUUCGAUAAUAGUCGCAAG [Fam3.1 aminoacylation ribozyme variant]	1.44	1.33	1.55	1.28	2.51	1.39
CCACACUUCAAGCACCCGGUC [Fam1B.1 aminoacylation ribozyme variant]	1.55	2.07	1.64	1.75	0.709	1.74
CUAUUUCAAACAAUCGGUCUU [Fam1A.1 aminoacylation ribozyme variant]	0.864	1.57	0.792	0.827	2.72	0.878
AUCCACCUAGGUCAUCGGUUG [Fam2.2 aminoacylation ribozyme variant]	1.31	1.84	1.41	1.52	5.85	1.5
CUAUUUCAAACAAUCAGUCUG [Fam1A.1 aminoacylation ribozyme variant]	0.795	1.7	0.72	0.852	4.29	0.721
AUUACCCUGGUUAUCGAGUGA [Fam2.1 aminoacylation ribozyme variant]	3.83	10.3	8.64	4.27	25.2	8.65
AAGUUUGAUAAUACUCGCAAG [Fam3.1 aminoacylation ribozyme variant]	0.638	0.52	0.493	0.511	0.788	0.617
AUUCACCUAGGUCAUCGGGCA [Fam2.2 aminoacylation ribozyme variant]	3.5	2.81	5.57	3.24	3.27	3.67
AAGUUCGCUAAUAUUCGCAAG [Fam3.1 aminoacylation ribozyme variant]	1.71	1.25	1.84	1.65	2.16	1.36
